From article PMC2688388

Target: mCeruleanC-α1C,77 (human Cav1.2 calcium channel α1C,77 subunit labeled at the C-tail with mCerulean) (human)
Assay: FRET or BRET; two-color FRET (mCerulean/tagRFP) epifluorescence microscopy in COS1 cells, control for cascade transfer: Rβ3 and α1CC without Vα1C

Chain of mCeruleanC-α1C,77 (human Cav1.2 calcium channel α1C,77 subunit labeled at the C-tail with mCerulean) (human) (Q13936 whole entry): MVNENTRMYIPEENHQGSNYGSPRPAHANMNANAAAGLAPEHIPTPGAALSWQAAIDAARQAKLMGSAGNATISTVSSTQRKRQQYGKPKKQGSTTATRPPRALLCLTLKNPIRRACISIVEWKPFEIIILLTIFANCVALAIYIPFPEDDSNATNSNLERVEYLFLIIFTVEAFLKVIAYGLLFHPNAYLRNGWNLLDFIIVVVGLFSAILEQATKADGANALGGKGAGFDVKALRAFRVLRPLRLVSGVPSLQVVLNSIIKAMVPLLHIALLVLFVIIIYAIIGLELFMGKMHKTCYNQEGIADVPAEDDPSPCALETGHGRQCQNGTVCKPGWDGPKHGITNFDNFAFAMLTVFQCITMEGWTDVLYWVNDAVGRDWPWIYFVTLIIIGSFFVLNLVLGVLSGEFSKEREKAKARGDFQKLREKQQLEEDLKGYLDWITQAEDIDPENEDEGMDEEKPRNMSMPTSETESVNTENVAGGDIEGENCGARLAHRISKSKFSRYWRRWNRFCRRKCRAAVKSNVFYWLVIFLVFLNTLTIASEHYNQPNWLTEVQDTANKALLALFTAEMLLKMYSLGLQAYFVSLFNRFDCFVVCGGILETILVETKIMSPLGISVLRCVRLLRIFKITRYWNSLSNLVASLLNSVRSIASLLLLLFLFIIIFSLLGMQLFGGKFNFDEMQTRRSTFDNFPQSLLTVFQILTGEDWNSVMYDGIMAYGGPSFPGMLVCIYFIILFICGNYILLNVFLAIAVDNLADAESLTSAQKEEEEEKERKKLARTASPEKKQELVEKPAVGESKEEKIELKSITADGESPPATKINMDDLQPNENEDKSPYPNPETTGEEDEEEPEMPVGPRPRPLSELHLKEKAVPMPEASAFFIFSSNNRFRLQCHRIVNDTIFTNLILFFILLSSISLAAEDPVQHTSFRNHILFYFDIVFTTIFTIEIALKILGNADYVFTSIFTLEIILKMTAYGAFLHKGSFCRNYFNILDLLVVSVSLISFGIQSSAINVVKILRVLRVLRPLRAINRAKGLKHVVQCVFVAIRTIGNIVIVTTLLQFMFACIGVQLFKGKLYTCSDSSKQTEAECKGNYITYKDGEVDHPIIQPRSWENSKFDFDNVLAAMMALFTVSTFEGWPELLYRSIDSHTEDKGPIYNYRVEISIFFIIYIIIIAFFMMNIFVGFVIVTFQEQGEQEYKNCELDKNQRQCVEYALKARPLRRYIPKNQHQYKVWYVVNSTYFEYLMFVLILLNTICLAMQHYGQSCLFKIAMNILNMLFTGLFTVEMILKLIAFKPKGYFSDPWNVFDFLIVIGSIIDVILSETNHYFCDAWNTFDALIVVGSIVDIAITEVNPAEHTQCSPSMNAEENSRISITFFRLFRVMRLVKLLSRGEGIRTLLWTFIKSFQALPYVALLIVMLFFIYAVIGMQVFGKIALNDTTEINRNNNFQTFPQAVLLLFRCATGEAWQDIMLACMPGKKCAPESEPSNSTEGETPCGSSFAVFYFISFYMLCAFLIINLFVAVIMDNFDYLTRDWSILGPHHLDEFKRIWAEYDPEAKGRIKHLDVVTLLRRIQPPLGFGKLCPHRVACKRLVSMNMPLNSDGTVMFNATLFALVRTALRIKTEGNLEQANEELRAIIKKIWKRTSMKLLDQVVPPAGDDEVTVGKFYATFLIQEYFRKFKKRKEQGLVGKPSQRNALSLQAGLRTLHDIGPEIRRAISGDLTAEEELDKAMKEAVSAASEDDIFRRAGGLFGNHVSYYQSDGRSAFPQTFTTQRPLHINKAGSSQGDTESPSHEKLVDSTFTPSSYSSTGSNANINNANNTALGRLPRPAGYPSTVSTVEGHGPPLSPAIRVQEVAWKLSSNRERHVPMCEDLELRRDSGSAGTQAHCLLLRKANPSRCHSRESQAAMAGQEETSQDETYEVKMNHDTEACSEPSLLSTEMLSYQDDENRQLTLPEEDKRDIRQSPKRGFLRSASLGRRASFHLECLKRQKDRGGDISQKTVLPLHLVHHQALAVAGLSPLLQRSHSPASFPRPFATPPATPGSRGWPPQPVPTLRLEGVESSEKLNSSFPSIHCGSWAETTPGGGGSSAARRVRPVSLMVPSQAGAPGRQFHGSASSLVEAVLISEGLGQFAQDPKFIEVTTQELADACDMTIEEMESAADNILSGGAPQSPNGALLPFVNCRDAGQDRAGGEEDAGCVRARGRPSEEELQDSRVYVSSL

RFP-β3 (human Cavβ3 subunit with tagRFP fused to the N-terminus) (from UniProt P54284 1-484) (natural protein)
FRET efficiency: 0.05
